{"source": "IntAct's records for PubMed 11741956", "parents": {"B1": {"name": "Proto-oncogene tyrosine-protein kinase LCK (Mus musculus), P06240 (parent)", "chain": "MGCVCSSNPEDDWMENIDVCENCHYPIVPLDSKISLPIRNGSEVRDPLVTYEGSLPPASPLQDNLVIALHSYEPSHDGDLGFEKGEQLRILEQSGEWWKAQSLTTGQEGFIPFNFVAKANSLEPEPWFFKNLSRKDAERQLLAPGNTHGSFLIRESESTAGSFSLSVRDFDQNQGEVVKHYKIRNLDNGGFYISPRITFPGLHDLVRHYTNASDGLCTKLSRPCQTQKPQKPWWEDEWEVPRETLKLVERLGAGQFGEVWMGYYNGHTKVAVKSLKQGSMSPDAFLAEANLMKQLQHPRLVRLYAVVTQEPIYIITEYMENGSLVDFLKTPSGIKLNVNKLLDMAAQIAEGMAFIEEQNYIHRDLRAANILVSDTLSCKIADFGLARLIEDNEYTAREGAKFPIKWTAPEAINYGTFTIKSDVWSFGILLTEIVTHGRIPYPGMTNPEVIQNLERGYRMVRPDNCPEELYHLMMLCWKERPEDRPTFDYLRSVLDDFFTATEGQYQPQP"}}}
{"variants_of": "B1", "conditions": "with cbl_human CBL"}
{"variant": "W97A", "effect of a mutation on the interaction": "decreasing interaction"}
